Test results reported in IntAct's records for PubMed 31515488.

B1: Cyclic AMP-dependent transcription factor ATF-4 (Homo sapiens), P18848 (parent)
chain: MTEMSFLSSEVLVGDLMSPFDQSGLGAEESLGLLDDYLEVAKHFKPHGFSSDKAKAGSSEWLAVDGLVSPSNNSKEDAFSGTDWMLEKMDLKEFDLDALLGIDDLETMPDDLLTTLDDTCDLFAPLVQETNKQPPQTVNPIGHLPESLTKPDQVAPFTFLQPLPLSPGVLSSTPDHSFSLELGSEVDITEGDRKPDYTAYVAMIPQCIKEEDTPSDNDSGICMSPESYLGSPQHSPSTRGSPNRSLPSPGVLCGSARPKPYDPPGEKMVAAKVKGEKLDKKLKKMEQNKTAATRYRQKKRAEQEALTGECKELEKKNEALKERADSLAKEIQYLKDLIEEVRKARGKKRVP
partner: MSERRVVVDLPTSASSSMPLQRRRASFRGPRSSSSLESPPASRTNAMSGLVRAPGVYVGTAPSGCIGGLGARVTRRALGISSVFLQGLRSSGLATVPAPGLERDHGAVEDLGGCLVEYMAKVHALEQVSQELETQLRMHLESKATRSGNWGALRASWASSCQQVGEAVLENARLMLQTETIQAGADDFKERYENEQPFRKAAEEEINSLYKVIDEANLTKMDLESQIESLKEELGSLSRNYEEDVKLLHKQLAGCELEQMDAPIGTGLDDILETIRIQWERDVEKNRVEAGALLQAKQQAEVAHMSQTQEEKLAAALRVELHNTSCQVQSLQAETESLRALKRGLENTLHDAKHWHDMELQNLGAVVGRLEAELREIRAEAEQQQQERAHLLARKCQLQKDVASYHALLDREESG
B2: Zinc finger protein 655 (Homo sapiens), Q8N720 (parent)
chain: MEEIPAQEAAGSPRVQFQSLETQSECLSPEPQFVQDTDMEQGLTGDGETREENKLLIPKQKISEEVHSYKVRVGRLKHDITQVPETREVYKSEDRLERLQEILRKFLYLEREFRQITISKETFTSEKNNECHEPEKSFSLDSTIDADQRVLRIQNTDDNDKYDMSFNQNSASGKHEHLNLTEDFQSSECKESLMDLSHLNKWESIPNTEKSYKCDVCGKIFHQSSALTRHQRIHTREKPYKCKECEKSFSQSSSLSRHKRIHTREKPYKCEASDKSCEASDKSCSPSSGIIQHKKIHTRAKSYKCSSCERVFSRSVHLTQHQKIHKEMPCKCTVCGSDFCHTSYLLEHQRVHHEEKAYEYDEYGLAYIKQQGIHFREKPYTCSECGKDFRLNSHLIQHQRIHTGEKAHECNECGKAFSQTSCLIQHHKMHRKEKSYECNEYEGSFSHSSDLILQQEVLTRQKAFDCDVWEKNSSQRAHLVQHQSIHTKENS
B3: Vesicle transport through interaction with t-SNAREs homolog 1B (Homo sapiens), Q9UEU0 (parent)
chain: MASSAASSEHFEKLHEIFRGLHEDLQGVPERLLGTAGTEEKKKLIRDFDEKQQEANETLAEMEEELRYAPLSFRNPMMSKLRNYRKDLAKLHREVRSTPLTATPGGRGDMKYGIYAVENEHMNRLQSQRAMLLQGTESLNRATQSIERSHRIATETDQIGSEIIEELGEQRDQLERTKSRLVNTSENLSKSRKILRSMSRKVTTNKLLLSIIILLELAILGGLVYYKFFRSH
partner: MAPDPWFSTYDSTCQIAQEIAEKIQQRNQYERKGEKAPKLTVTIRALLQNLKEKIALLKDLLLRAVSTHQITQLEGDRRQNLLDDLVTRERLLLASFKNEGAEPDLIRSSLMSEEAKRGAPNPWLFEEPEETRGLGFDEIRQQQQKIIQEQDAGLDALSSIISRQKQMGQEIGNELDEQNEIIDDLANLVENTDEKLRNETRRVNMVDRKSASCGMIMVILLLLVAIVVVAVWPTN
B4: Nuclear autoantigen Sp-100 (Homo sapiens), P23497 (parent)
chain: MAGGGGDLSTRRLNECISPVANEMNHLPAHSHDLQRMFTEDQGVDDRLLYDIVFKHFKRNKVEISNAIKKTFPFLEGLRDRDLITNKMFEDSQDSCRNLVPVQRVVYNVLSELEKTFNLPVLEALFSDVNMQEYPDLIHIYKGFENVIHDKLPLQESEEEEREERSGLQLSLEQGTGENSFRSLTWPPSGSPSHAGTTPPENGLSEHPCETEQINAKRKDTTSDKDDSLGSQQTNEQCAQKAEPTESCEQIAVQVNNGDAGREMPCPLPCDEESPEAELHNHGIQINSCSVRLVDIKKEKPFSNSKVECQAQARTHHNQASDIIVISSEDSEGSTDVDEPLEVFISAPRSEPVINNDNPLESNDEKEGQEATCSRPQIVPEPMDFRKLSTFRESFKKRVIGQDHDFSESSEEEAPAEASSGALRSKHGEKAPMTSRSTSTWRIPSRKRRFSSSDFSDLSNGEELQETCSSSLRRGSGSQPQEPENKKCSCVMCFPKGVPRSQEARTESSQASDMMDTMDVENNSTLEKHSGKRRKKRRHRSKVNGLQRGRKKDRPRKHLTLNNKVQKKRWQQRGRKANTRPLKRRRKRGPRIPKDENINFKQSELPVTCGEVKGTLYKERFKQGTSKKCIQSEDKKWFTPREFEIEGDRGASKNWKLSIRCGGYTLKVLMENKFLPEPPSTRKKRILESHNNTLVDPCEEHKKKNPDASVKFSEFLKKCSETWKTIFAKEKGKFEDMAKADKAHYEREMKTYIPPKGEKKKKFKDPNAPKRPPLAFFLFCSEYRPKIKGEHPGLSIDDVVKKLAGMWNNTAAADKQFYEKKAAKLKEKYKKDIAAYRAKGKPNSAKKRVVKAEKSKKKKEEEEDEEDEQEEENEEDDDK
partner: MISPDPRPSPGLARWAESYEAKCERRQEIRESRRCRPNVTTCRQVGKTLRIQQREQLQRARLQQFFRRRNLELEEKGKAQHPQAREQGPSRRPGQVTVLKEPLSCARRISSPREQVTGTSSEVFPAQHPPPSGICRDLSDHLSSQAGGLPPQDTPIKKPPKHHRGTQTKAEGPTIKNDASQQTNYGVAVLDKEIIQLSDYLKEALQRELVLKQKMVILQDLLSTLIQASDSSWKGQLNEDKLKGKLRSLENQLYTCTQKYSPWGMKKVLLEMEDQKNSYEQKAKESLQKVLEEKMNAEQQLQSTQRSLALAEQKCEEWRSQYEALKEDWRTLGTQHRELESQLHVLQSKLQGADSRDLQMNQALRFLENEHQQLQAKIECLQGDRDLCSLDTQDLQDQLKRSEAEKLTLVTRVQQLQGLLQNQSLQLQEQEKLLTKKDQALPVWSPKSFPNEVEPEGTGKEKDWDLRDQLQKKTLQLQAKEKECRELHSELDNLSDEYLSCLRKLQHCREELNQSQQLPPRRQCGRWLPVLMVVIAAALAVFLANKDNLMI
B5: Protein FAM13C (Homo sapiens), Q8NE31 (parent)
chain: MFSCFCFSLQDNSFSSTTVTECDEDPVSLHEDQTDCSSLRDENNKENYPDAGALVEEHAPPSWEPQQQNVEATVLVDSVLRPSMGNFKSRKPKSIFKAESGRSHGESQETEHVVSSQSECQVRAGTPAHESPQNNAFKCQETVRLQPRIDQRTAISPKDAFETRQDLNEEEAAQVHGVKDPAPASTQSVLADGTDSADPSPVHKDGQNEADSAPEDLHSVGTSRLLYHITDGDNPLLSPRCSIFSQSQRFNLDPESAPSPPSTQQFMMPRSSSRCSCGDGKEPQTITQLTKHIQSLKRKIRKFEEKFEQEKKYRPSHGDKTSNPEVLKWMNDLAKGRKQLKELKLKLSEEQGSAPKGPPRNLLCEQPTVPRENGKPEAAGPEPSSSGEETPDAALTCLKERREQLPPQEDSKVTKQDKNLIKPLYDRYRIIKQILSTPSLIPTIQEEEDSDEDRPQGSQQPSLADPASHLPVGDHLTYSNETEPVRALLPDEKKEVKPPALSMSNLHEATMPVLLDHLRETRADKKRLRKALREFEEQFFKQTGRSPQKEDRIPMADEYYEYKHIKAKLRLLEVLISKQDVAKTI
partner: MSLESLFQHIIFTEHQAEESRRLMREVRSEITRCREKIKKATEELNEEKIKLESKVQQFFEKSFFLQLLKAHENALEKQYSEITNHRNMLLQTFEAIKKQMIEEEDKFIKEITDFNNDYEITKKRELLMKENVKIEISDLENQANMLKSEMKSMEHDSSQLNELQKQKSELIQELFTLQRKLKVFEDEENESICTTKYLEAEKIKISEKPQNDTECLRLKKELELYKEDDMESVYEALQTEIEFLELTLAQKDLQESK
B6: Zinc finger protein Aiolos (Homo sapiens), Q9UKT9 (parent)
chain: MEDIQTNAELKSTQEQSVPAESAAVLNDYSLTKSHEMENVDSGEGPANEDEDIGDDSMKVKDEYSERDENVLKSEPMGNAEEPEIPYSYSREYNEYENIKLERHVVSFDSSRPTSGKMNCDVCGLSCISFNVLMVHKRSHTGERPFQCNQCGASFTQKGNLLRHIKLHTGEKPFKCHLCNYACQRRDALTGHLRTHSVEKPYKCEFCGRSYKQRSSLEEHKERCRTFLQSTDPGDTASAEARHIKAEMGSERALVLDRLASNVAKRKSSMPQKFIGEKRHCFDVNYNSSYMYEKESELIQTRMMDQAINNAISYLGAEALRPLVQTPPAPTSEMVPVISSMYPIALTRAEMSNGAPQELEKKSIHLPEKSVPSERGLSPNNSGHDSTDTDSNHEERQNHIYQQNHMVLSRARNGMPLLKEVPRSYELLKPPPICPRDSVKVINKEGEVMDVYRCDHCRVLFLDYVMFTIHMGCHGFRDPFECNMCGYRSHDRYEFSSHIARGEHRALLK
partner: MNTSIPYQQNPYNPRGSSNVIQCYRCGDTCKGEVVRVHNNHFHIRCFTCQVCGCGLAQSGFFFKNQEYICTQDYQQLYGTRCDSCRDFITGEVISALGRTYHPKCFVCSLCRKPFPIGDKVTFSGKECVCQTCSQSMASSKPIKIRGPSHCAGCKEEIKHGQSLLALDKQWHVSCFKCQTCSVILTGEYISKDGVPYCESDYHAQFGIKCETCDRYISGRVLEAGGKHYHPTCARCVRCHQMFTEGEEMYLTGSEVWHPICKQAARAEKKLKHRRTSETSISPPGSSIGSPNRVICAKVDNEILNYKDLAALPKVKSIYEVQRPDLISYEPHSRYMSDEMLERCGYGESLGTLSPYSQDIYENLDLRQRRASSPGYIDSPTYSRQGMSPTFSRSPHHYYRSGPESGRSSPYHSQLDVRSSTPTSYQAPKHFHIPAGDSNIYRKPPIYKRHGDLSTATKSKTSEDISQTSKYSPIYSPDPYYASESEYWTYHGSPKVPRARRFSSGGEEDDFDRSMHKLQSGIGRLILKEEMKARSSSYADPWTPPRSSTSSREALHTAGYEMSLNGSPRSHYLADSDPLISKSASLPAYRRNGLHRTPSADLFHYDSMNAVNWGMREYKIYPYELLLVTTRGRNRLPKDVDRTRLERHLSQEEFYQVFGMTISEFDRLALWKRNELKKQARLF

Variants of: B1
Settings: with bfsp2_human BFSP2, Q13515

Row | effect of a mutation on the interaction | Variant
1 | with no effect | A324V
2 | with no effect | P258A
3 | with no effect | T137S
4 | disrupting interaction strength | E322D

Variants of: B2
Settings: with int13_human INTS13, Q9NVM9
Sequence of int13_human INTS13, Q9NVM9 (Q9NVM9 whole entry): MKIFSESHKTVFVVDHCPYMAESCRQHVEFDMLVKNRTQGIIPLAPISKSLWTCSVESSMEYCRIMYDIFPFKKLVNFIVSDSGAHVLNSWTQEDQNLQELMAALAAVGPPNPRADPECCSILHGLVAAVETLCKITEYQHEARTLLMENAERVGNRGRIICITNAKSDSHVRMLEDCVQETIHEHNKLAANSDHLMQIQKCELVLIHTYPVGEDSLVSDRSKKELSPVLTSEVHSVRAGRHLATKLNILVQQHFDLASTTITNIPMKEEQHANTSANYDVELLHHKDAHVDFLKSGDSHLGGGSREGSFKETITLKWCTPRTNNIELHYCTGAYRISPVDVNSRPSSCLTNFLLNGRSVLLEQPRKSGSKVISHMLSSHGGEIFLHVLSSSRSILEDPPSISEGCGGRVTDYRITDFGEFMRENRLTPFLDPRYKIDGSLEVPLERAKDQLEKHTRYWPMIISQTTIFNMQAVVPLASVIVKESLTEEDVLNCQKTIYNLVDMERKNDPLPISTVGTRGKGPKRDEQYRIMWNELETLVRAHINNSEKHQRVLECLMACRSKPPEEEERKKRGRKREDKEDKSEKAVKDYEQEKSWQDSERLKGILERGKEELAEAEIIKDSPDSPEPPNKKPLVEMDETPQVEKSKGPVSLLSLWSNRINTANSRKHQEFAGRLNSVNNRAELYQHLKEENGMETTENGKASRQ

Row | effect of a mutation on the interaction | Variant
5 | with no effect | C466G

Variants of: B2
Settings: with rint1_human RINT1, Q6NUQ1
Sequence of rint1_human RINT1, Q6NUQ1 (Q6NUQ1 whole entry): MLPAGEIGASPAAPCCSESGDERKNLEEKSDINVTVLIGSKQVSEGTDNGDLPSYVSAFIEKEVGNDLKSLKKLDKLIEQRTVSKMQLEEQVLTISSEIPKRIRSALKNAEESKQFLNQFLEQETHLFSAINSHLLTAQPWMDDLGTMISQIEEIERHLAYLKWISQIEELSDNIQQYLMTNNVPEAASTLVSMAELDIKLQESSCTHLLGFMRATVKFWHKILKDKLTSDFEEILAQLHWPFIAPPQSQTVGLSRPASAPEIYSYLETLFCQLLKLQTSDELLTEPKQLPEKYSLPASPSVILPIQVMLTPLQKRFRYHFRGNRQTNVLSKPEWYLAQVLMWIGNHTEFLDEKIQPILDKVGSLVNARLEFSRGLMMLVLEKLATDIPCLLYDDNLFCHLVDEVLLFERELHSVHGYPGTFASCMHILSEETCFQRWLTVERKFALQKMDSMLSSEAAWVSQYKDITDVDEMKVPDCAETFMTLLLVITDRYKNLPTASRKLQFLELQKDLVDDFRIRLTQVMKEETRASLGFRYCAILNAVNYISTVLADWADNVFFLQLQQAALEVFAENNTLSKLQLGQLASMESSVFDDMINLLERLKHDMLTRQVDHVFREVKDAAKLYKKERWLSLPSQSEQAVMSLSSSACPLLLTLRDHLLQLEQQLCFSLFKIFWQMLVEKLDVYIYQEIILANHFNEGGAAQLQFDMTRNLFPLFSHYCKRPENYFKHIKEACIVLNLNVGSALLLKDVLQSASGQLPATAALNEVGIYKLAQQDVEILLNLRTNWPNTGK

Row | effect of a mutation on the interaction | Variant
6 | with no effect | S192R

Variants of: B3
Settings: with stx8_human STX8, Q9UNK0

Row | effect of a mutation on the interaction | Variant
7 | with no effect | R124Q
8 | with no effect | R176H

Variants of: B4
Settings: with TRAF3IP3, Q9Y228

Row | effect of a mutation on the interaction | Variant
9 | with no effect | M433V

Variants of: B5
Settings: with cc172_human CCDC172, P0C7W6

Row | effect of a mutation on the interaction | Variant
10 | with no effect | P147S

Variants of: B6
Settings: with ablm3_human ABLIM3, O94929

Row | effect of a mutation on the interaction | Variant
11 | with no effect | N119D
12 | with no effect | A24V
